Experimental data reported in publication PMC4992421 (Nature immunology, 2016).

Tests used:
Assay in all cases: SPR
[1] = target: KIR3DS1-Fc (human, UniProt Q14943)
[2] = target: KIR3DL1-Fc (human, UniProt P43629)
[3] = target: KIR3DL2-Fc (human, UniProt P43630)
Chain of KIR3DL2-Fc (P43630 22-340): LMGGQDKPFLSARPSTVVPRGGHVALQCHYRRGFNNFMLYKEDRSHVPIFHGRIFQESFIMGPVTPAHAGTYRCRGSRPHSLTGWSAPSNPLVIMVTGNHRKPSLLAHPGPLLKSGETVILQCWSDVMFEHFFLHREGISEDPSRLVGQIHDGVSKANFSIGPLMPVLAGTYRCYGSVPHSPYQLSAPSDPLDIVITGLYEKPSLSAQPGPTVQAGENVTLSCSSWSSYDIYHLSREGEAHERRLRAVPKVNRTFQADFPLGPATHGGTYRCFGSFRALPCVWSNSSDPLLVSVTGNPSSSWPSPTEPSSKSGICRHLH

Chain of KIR3DS1-Fc (Q14943 22-340): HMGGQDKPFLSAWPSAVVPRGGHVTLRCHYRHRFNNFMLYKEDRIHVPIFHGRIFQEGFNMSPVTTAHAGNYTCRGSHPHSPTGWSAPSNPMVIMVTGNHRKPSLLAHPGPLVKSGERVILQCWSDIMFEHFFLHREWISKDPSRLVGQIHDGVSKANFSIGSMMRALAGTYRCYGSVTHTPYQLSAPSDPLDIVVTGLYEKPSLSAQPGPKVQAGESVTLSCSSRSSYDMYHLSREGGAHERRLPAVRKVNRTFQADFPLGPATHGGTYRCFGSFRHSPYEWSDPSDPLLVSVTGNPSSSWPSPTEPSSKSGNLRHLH
Chain of KIR3DL1-Fc (P43629 22-340): as the sequence (Q14943 22-340) above, with V47I, G58S, M92V, R136K, W138G, S163P, R166L, L199P, L315P counted along it

Kd [1]: 25 nM
koff [1]: 0.0007 s⁻¹
kon [1]: 28400 M⁻¹ s⁻¹
Kd [2]: 157 nM
koff [2]: 0.00691 s⁻¹
kon [2]: 44000 M⁻¹ s⁻¹
Kd [3]: 118 nM
koff [3]: 0.00508 s⁻¹
kon [3]: 43000 M⁻¹ s⁻¹
B1: HLA-F open conformer (natural protein)
MHC heavy: GSHSLRYFSTAVSRPGRGEPRYIAVEYVDDTQFLRFDSDAAIPRMEPREPWVEQEGPQYWEWTTGYAKANAQTDRVALRNLLRRYNQSEAGSHTLQGMNGCDMGPDGRLLRGYHQHAYDGKDYISLNEDLRSWTAADTVAQITQRFYEAEEYAEEFRTYLEGECLELLRRYLENGKETLQRADPPKAHVAHHPISDHEATLRCWALGFYPAEITLTWQRDGEEQTQDTELVETRPAGDGTFQKWAAVVVPPGEEQRYTCHVQHEGLPQPLILRWEQSPQPTIPI
modifications: biotin (biotinylated monomer, site not stated)
